According to the supplement of paper PMC10567573:

B1: LOC100129726 (parent)
chain: AKAADSPTRNDLESGLGHFSLRVH
B2: TFE3 (parent)
chain: FHLGLEDILMEEEEGVVGGLSGGA

Variants of: B1
Experiment: protein stability index of a GFP-peptide fusion (GPS, HEK-293T) (PSI 1-6); higher = more stable
Details: c terminus: a fixed tail appended
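Further: lentivirally expressed fusions sorted by FACS into six bins by GFP to DsRed ratio, PSI derived from sequencing read proportions per bin multiplied by bin number.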

Protein stability index of substitutions, site by site:
A4: S 3.1; P 3.06; Q 3.15; R 2.81; G 2.86; W 2.16; H 3.36; D 3.87; I 2.98; C 3.05; L 2.95; Y 2.42; F 2.31; T 3.7; N 3.04; E 4.12; K 3.09; V 2.4; M 2.54
A3: C 2.73; M 2.27; V 2.28; K 3.23; I 2.69; L 2.6; D 3.44; G 3.42; W 2.21; S 3.49; F 2.77; N 2.97; R 3.58; H 3; T 2.58; E 3.8; Q 3.03; P 3.04; Y 2.26
D11: T 2.3; P 2.35; Y 2.25; C 2.91; W 2.56; N 2.47; V 2.21; L 1.9; R 2.54; M 2.19; H 2.42; E 3.9; F 2.75; I 1.96; G 2.33; K 2.72; S 2.64; A 3.1; Q 2.8
L12: P 3.51; W 2.6; V 3.62; S 4.46; E 4; R 3.76; D 3.9; N 4.16; C 2.82; T 2.91; G 3.52; M 3.78; Q 4.45; I 3; H 3.57; F 3.06; K 3.92; A 3.47
N10: K 2.98; Y 1.97; R 3.17; A 3.06; T 2.79; S 3.17; L 2.88; I 1.78; F 2.38; W 1.88; V 2.56; D 3.61; G 2.77; Q 3.87; C 2.13; H 3.53; M 2.51; P 4
S6: P 3.16; V 2.77; Q 3.76; L 2.16; H 2.95; Y 2.26; W 1.92; N 3.58; E 3.5; M 2.16; I 2.53; D 3.44; G 2.72; K 2.98; C 2.71; R 3.08; A 2.45; F 2.74; T 3.39
A1: L 2.9; S 3.36; Y 3.34; P 3.17; C 2.1; H 3.27; F 2.6; D 3.88; G 3.1; T 3.25; I 2.48; R 2.74; W 2.33; E 3.47; N 3.25; M 2.74; V 3.39; Q 3.38; K 3.34
D5: E 3.16; G 2.9; R 2.67; H 2.63; K 3.19; A 2.84; V 2.54; C 2.34; P 2.48; S 3.07; L 2.56; I 2.65; F 2.17; Y 2.3; M 3.06; W 2.14; N 2.81; T 2.61; Q 3.15
P7: L 3.09; Y 2.18; T 3.2; H 3.45; A 3.49; Q 3.41; S 2.81; V 2.7; C 2.16; K 2.92; E 3.28; D 3.64; M 2.57; W 1.65; R 3.56; G 2.77; I 2.75; N 3.27; F 2.33
R9: Y 2.7; V 2.71; S 3.25; Q 3.22; N 3.51; D 3.64; L 2.73; T 3.09; E 3.95; K 4.17; W 1.86; I 2.37; P 3.07; H 3.56; G 3.84; M 3.46; C 3.04; F 2.4; A 3.47
K2: P 3.23; V 3.18; T 3.27; N 2.88; E 3.98; D 3.55; M 2.78; I 3.21; L 3.03; S 2.99; A 3.68; Y 2.49; C 2.05; F 2.42; W 1.66; R 3.38; G 2.71; Q 2.69; H 3.38
T8: M 2.12; P 3.38; N 3.36; V 4.01; Q 3.1; D 3.31; H 2.63; I 2.45; G 3.61; F 2.35; K 2.73; W 1.98; Y 2.75; L 2.13; A 2.95; S 2.74; C 2.07; R 2.53

Variants of: B2
Experiment: as above
Details: c terminus: a fixed tail appended

Protein stability index of substitutions, site by site:
E12: H 3.09; S 3.29
H2: I 2.52; A 4.12; D 4.81
L20: G 3.98; V 4.69; W 3.02; M 3.19
G18: R 3.72; D 4.06; W 3.06; F 2.77; Y 3.23
F1: A 5.2
S21: C 3.48; D 3.95; P 3.35; H 3.44; G 4.07; Y 2.77
V17: C 4.01; R 3.8; W 2.72; K 3.77; G 3.15
I8: D 4.59; S 4.28; V 4.08; P 4.89
G15: D 4.19; L 3.1; R 4.03
L9: M 4.1; T 4.37; R 4.5; A 4.22
E14: Y 2.39; W 1.43; D 3.82; L 2.67; Q 2.98; S 2.83
G4: W 2.67; N 3.48; A 2.97; T 3.08
A24: R 3.86; N 3.65; M 3.12; Y 2.68
G22: A 3.81; D 3.5; K 4.05
V16: I 4.12; A 3.87; T 4; C 4.07
M10: S 4.08; L 3.44
G23: P 4; S 3.52; L 3.58; M 3.19; N 3.96; D 4.04; Q 3.89; V 3.98; K 3.89
L3: H 4.32; C 2.34; N 4.17; W 2.45; A 4.52; M 3.92
D7: Y 1.57; A 2.34; P 3.5; L 2.16; I 2.25
G19: I 2.87; E 4.32; L 3.25; K 3.34; W 2.18
L5: A 4.62; F 3.16; G 4.52; C 4.36; Y 3.21; E 4.96; T 4.23; H 3.91; S 4.37
E13: K 3.41; H 3.19; Y 2.11; M 2.15; N 3.55; G 2.58
E6: H 2.86; I 1.88; L 3.26; W 2.02
E11: D 3.66; F 2.09; H 2.73; I 2.08; K 3.35
